From patent publication US20210337838A1, “RECOMBINANT EXPRESSION OF FUMONISIN AMINE OXIDASE” (priority 2018, published 2021)
Where two headings read alike, the source gives them in different places.

Assays:
[1] = Amplex red assay of RID+AO enzyme; format: biochemical; conditions: 80 nM enzyme, 25 μM FB1, 50 mM HEPES (pH 7), 150 mM NaCl
[2] = FB2 deamination by purified recombinant AnFAO, reverse-phase LC/MS; format: biochemical; conditions: 6 nM enzyme, 1 μM FB2, 0.1 mg/ml catalase, 1 h at 37° C.
Procedure: In particular, all MS data were collected with a Q-Exactive™ Quadrupole Orbitrap™ mass spectrometer (Thermo Scientific, MA, USA) coupled to an Agilent 1290 ultra-high-performance liquid chromatography (UHPLC) system. Fumonisins were resolved on a Zorbax™ Eclipse Plus Rapid Resolution High Definition (RRHD) C18 column (2.1×50 mm, 1.8 μm; Agilent Technologies, CA, USA), maintained at 35° C. The mobile phase was comprised of water with 0.1% formic acid (A), and acetonitrile with 0.1% formic acid (B) (Optima grade, Fisher Scientific, NJ, USA). The gradient consisted of 0% B for 0.5 min before increasing to 100% over 3 min, held at 100% for 2.5 min and reduced to 0% over 0.5 min. The fumonisins were detected in negative ionization mode using the following electrospray conditions: capillary voltage, 4.0 kV; capillary temperature, 400° C.; sheath gas, 17.00 units; auxiliary gas, 8.00 units; probe heater temperature, 450° C.; S Lens RF level, 45.00. […] The five highest intensity ions from the full scan (excluding isotopes) were sequentially selected using a 1.2 m/z isolation window and analyzed at a resolution of 17,500; AGC target, 1×10^5; max IT, 64 ms; normalized collision energy (NCE) 30; threshold intensity 9.1×10^4; and dynamic exclusion of 1.5 s. Fumonisins were detected by accurate mass (±5 ppm) and retention time (±0.1 min) and verified by MS/MS. […]

[3] = Circular dichroism thermal denaturation; format: physicochemical; conditions: 0.3 mg/ml, 20 mM Tris-HCl (pH 7.4), 50 mM NaCl, 0.75 mM DTT, monitored at 222, 20 to 95° C.
Procedure: (§1) Activity was measured via reverse-phase LC/MS analysis. […] All proteins were scanned at a concentration of 0.3 mg/ml in buffer containing 20 mM Tris-HCl (pH 7.4), 50 mM NaCl and 0.75 mM DTT. Thermal denaturation was monitored at […] with a temperature scan ranging from 20 to 95° C., increasing by 1° C. per minute with data collection every 30 seconds. Baseline corrected data were converted from millidegrees to mean residue ellipticity, and thermal denaturation curves were produced by nonlinear regression in Graphpad Prism.

[4] = Ethanol tolerance of deamination activity, reverse phase LC/MS
[5] = NaCl dependence of fumonisin deamination activity, Amplex red; format: biochemical
Procedure: (§2) 98 μL of this solution was added to 2 μL of a stock of FB2 in a microfuge tube (2.5 mM) and incubated at 30° C. for 30 mins. At the end of the incubation time, 20 μL of the reaction was diluted with 80 μL of 50 mM HEPES pH 7.0, 150 mM NaCl and 100 μL of this was added in triplicate to wells of a 96-well microplate. 100 μL of Amplex™ red reaction buffer consisting of 50 mM HEPES pH 7.0, 150 mM NaCl, 200 μM Amplex™ red, 2 U/ml horseradish peroxidase was immediately added to each well and absorbance was measured at 571 nm. Rates were calculated based on an H2O2 standard curve and the incubation time taking into account the dilution factors. […] 100 μL of protein sample was added to wells in triplicate in a 96-well microplate. 100 μL of Amplex™ red reaction buffer consisting of 50 mM HEPES pH 7.0, 200 μM Amplex™ red, 2 U/ml horseradish peroxidase and 50 μM FB2 was then added to each well and absorbance was monitored at 571 nm every 10 mins for 1 hr. A standard curve consisting of 0-10 μM H2O2 was included to determine the absorbance for every pmol of H2O2 generated by the reaction.

[6] = Effect of temperature on fumonisin deamination activity, reverse-phase LC/MS; format: biochemical; conditions: 6 nM enzyme
Procedure: as §1

[7] = Procedure: as §2
[8] = Fumonisin deamination activity of AnFAO with or without excess FAD; format: biochemical; conditions: enzyme dialyzed in 20 mM MES (pH 6), 150 mM NaCl with additional 50 μM FAD
From the text: The whole mass of AnFAO following denaturation and LC-MS analysis was 51,320.70 Da, which matches the predicted mass of the apo-enzyme (51,320.97 Da) as shown in FIG. 12D. […] AnFAO also lacked the requisite Histidine or Tyrosine residues for covalent 6α-linkages to the FAD backbone, as observed in other covalent flavoproteins (Heuts et al., 2009).

[9] = 1 μM enzyme, room temperature, 16 h, corn material in water
Procedure: Following incubation, 700 μls of extraction solution (78% acetonitrile, 2% ethyl acetate) was added to each sample and incubated at 37° C. with shaking for 45 minutes. This mixture was then centrifuged at 20,000×g and 400 μls of the cleared supernatant was mixed with an equal volume of 50% methanol. Samples were then analyzed for fumonisin contamination by reverse phase HPLC-MS as previously described.

B1: RID+AO: GST-tagged 597 amino acid A. niger enzyme with N-terminal Reactive Intermediate Deaminase domain and C-terminal amine oxidase domain (protein)
chain: MAPAPVLATSAYYAPGVVSSASKYLHVSGQPGTIEGTAPADYNSQIHLALVNLHRVLAATGATPRDVVKLTLYIVDYDPNNRLHTRPLQTWLAGHKPAITLVPVPQLAVPDWKFEIEATVAVPDSIPASLSLPSPTETTDVLVIGAGLSGLMAAETTLQSGHSCIVLEGRDRVGGKTWTCPLPSGTGVVDLGAAWINDTNQSMMYELARRAGADLIEQNTTGNCLLQREDGAITAFPYGQTPCITPQIVKEIEAIRDTAEQDCQSFSTSRPQSPALDSLSFLAYLHSRNASPIAAANASVWTRAMLGQEPQDISALYFLNYCKSGGGLLQMRSDRKHGAQYLRVRQGTQIFAKTLAESLPTDTIRFGQRVVGITQVQKGVNYVQTESGLVVKARKVICSVPTPVLKTIKFEPQLPAAKQLLVDSFRYGYYTKVMLSFRTAWWADRGFCGLAQSFVGPASIYRDTSSPEDGKWVLTAFLAGDAGRNWSALGSQRERELALLEQLGAIYGDKDLPKREFVEALGHEWSTEELSGWGCPCPALPPGVLTLAGDALREPFRDVHFVGTETAEEWKGYMEGAVRSGKRGAAEAVKGLTRSQL
modifications: GST tag; Aspergillus niger
- activity towards fumonisins [1]: no activity

B2: AnFAO_15309 (protein)
chain: MSVSNDPTTKLYDAVIVGAGLSGLQAAHSIQAAGFSVCILEATDRMGGKTLTVKSSEKGYNDLGAAWVNDTNQTEIFKLHQRYGLDGVVQYTCGDDILESGEGVIRKIPYGLPLTGLPKKLLDILRIESSRLDLDDPTSFPGATEVDNLTFRDFCVEKTGSEDVIHITDAISTALLGLNSNELSALYMLYYFKSGSGIDNLLSDERDGAQYLRTRQGTQTIARKMADELTQSDIFLGMPVTSINQTDADAHCVVQTLDGSSFRCRRVIVSIPTTLYRSVSFHPPLPHAKQVLSDHTIMGYYSKVIFIFKEPWWRDAGLTGIVNCAGGPITFTRDTSVPTDDQWSITCFMVGSRGRAWSKLSKDDRYSQVWEQFRRCFEEFVENIPEPVNTLEMEWSKEPYFLGAPCPAMIPGLLTTAGSDLAAPHGKVHFIGTETSTVWRGYMEGAIRAGQRGGAEVVTALQED
modifications: codon-optimized; AnFAO_15309 codon optimized for Saccharomyces cerevisiae
- conversion of FB2 into FPy2 [2]: Full conversion
- melting temperature [3]: 71 °C
- activity remaining at 5% EtOH ([4]; 10 nM enzyme, 1 μM FB2, 30 minutes at 37° C., 5% EtOH): 71%
- activity remaining at 10% EtOH ([4]; 10 nM enzyme, 1 μM FB2, 30 minutes at 37° C., 10% EtOH): 43%
- activity remaining at 20% EtOH ([4]; 10 nM enzyme, 1 μM FB2, 30 minutes at 37° C., 20% EtOH): 12%
- deamination activity at 30% EtOH ([4]; 30% EtOH): Negligible amounts
- deamination activity at 40% EtOH ([4]; 40% EtOH): Negligible amounts
- of maximum activity at 0 mM NaCl ([5]; 0 mM NaCl): 70%
- NaCl concentration of optimal activity ([5]; 50 mM HEPES pH 7.0, FB2): 50 mM
- of maximum activity at 1 M NaCl ([5]; 1 M NaCl): 66%
- optimal temperature of FB2 deamination ([6]; 2 μM FB2): 50 °C
- of maximal activity at 21° C. ([6]; 2 μM FB2, 21° C.): ca. 35%
- of maximal activity at 60° C. ([6]; 2 μM FB2, 60° C.): 52%
- activity at 95° C. ([6]; 2 μM FB2, 95° C.): No activity
- optimal pH of activity ([7]; 300 nM enzyme, FB2, 30° C., 30 mins): 6
- activity remaining at pH 3.5 ([7]; Citrate pH 3.5): ca. 20%
- activity remaining at pH 9.0 ([7]; Pyrophosphate pH 9): ca. 30%
- change in fumonisin deamination activity with additional FAD [8]: No difference
- intact fumonisins remaining after treatment [9]: no intact fumonisins remained
- intact fumonisins remaining after treatment ([9]; listed as AnFAO): No intact fumonisin remained
